The text below walks through data of patent US20100249029A1 (Novo Nordisk, published 2010).

For assay [1], the target named is T1, PRLR stably expressed on Ba/F3 cells (Ba/F3-PRLR) (UniProt P16471 25-622, limits assumed).
T1 sequence (looked up): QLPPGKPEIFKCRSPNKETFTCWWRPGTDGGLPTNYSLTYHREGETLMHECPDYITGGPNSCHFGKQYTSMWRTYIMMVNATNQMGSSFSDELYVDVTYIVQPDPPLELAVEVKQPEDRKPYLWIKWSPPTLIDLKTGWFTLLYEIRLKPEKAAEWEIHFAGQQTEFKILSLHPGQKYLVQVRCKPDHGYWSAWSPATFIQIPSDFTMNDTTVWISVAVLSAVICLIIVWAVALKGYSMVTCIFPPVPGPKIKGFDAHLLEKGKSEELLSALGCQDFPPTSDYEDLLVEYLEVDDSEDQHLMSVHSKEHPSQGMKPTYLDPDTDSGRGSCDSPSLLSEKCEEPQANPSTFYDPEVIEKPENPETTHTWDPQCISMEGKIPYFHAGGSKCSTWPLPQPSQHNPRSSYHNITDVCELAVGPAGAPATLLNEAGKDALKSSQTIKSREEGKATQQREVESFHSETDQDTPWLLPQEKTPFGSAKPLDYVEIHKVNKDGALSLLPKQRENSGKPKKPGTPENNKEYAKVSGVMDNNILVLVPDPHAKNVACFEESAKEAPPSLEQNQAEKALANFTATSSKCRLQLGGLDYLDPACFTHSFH
Description: cell-based or functional assay.

For assay [2], the target named is T2, Biotinylated prolactin receptor BirATag-Ser-PRLR (1-210) (human, UniProt P16471 25-234, biotinylated (BirA tag, biotin added during expression in E. coli)).
T2 construct: range 1-210; also called BirA-Ser-PRLR (1-210); not shown: BirA tag (biotin acceptor tag)
T2 sequence: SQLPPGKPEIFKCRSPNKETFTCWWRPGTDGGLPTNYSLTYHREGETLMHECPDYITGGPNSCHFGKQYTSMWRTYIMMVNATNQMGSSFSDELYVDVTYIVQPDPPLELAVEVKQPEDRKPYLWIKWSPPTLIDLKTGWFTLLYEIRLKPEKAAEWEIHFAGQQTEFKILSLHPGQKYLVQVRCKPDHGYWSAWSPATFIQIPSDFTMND
Description: Biacore SPR, BirATag-Ser-PRLR (1-210) immobilised on a CM5 chip, PRL analogues 1.6-25 nM. The protocol: (§1) Biotinylated prolactin receptor BirATag-Ser-PRLR (1-210) was diluted to 20 μg/ml in 10 mM sodium acetate pH 4.0 (Biacore BR-1003-49) and immobilized on the CM5 chip (Biacore BR-1006-68) with the immobilization reagents 1-ethyl-3-(3-dimethylaminopropyl) carbodiimide hydrochloride (EDC), N-hydroxysuccinimide (NHS) and 1.0 M ethanolamine-HCl pH 8.5 (Biacore BR1000-50). The immobilization level was 1500 RU. The PRL analogues were diluted to a series of concentrations as following: 1.6/3.13/6.25/12.5/25 nM and run through the PRLR immobilized chip using HBS-EP (10 mM HEPES pH 7.4; 150 mM NaCl; 3 mM EDTA; 0.005% v/v Tween-20) as the running buffer under the following conditions: […]
(SPR reads the build-up and loss of mass on a sensor chip optically.)

For assay [3], the target named is T2, Biotinylated prolactin receptor …. Description: SPR (Biacore); biotinylated BirATag-Ser-PRLR (1-210) amine-coupled to CM5 chip, variant injected at 3.13-50 nM; STDEV 0.000. The protocol:
as §1, with “on a” for “on the”, “PRL variants prepared as described in Example 5” for “PRL analogues”, “following: 3.13/6.25/12.5/25/50” for “following: 1.6/3.13/6.25/12.5/25”

Assay [4] has as its target T1, PRLR stably expressed on Ba/F3 cells …. Description: cell-based or functional assay. This is another data set of the same source.
For assay [5], the target named is T2, Biotinylated prolactin receptor …. Put plainly: SPR (Biacore); biotinylated BirATag-Ser-PRLR (1-210) amine-coupled to CM5 chip, control injected at 3.13-50 nM; STDEV 1.63; one value under a double label. The protocol:
as §1, with “on a” for “on the”, “PRL variants prepared as described in Example 5” for “PRL analogues”, “following: 3.13/6.25/12.5/25/50” for “following: 1.6/3.13/6.25/12.5/25”

Assay [6] has the same target. Put plainly: SPR (Biacore); BirATag-Ser-PRLR (1-210) on CM5 chip, analogue injected at 1.6-25 nM (FIG. 5). The protocol: as §1
Assay [7] shares this target. Description: SPR (Biacore); biotinylated BirATag-Ser-PRLR (1-210) amine-coupled to CM5 chip, variant injected at 3.13-50 nM; STDEV 0.17. The protocol: as §1, with “on a” for “on the”, “PRL variants prepared as described in Example 5” for “PRL analogues”, “following: 3.13/6.25/12.5/25/50” for “following: 1.6/3.13/6.25/12.5/25”
Assay [8] shares this target. Description: SPR (Biacore); biotinylated BirATag-Ser-PRLR (1-210) amine-coupled to CM5 chip, variant injected at 3.13-50 nM; STDEV 0.042. The protocol: as §1, with “on a” for “on the”, “PRL variants prepared as described in Example 5” for “PRL analogues”, “following: 3.13/6.25/12.5/25/50” for “following: 1.6/3.13/6.25/12.5/25”
For assay [9] the target is unchanged. Description: SPR (Biacore); biotinylated BirATag-Ser-PRLR (1-210) amine-coupled to CM5 chip, variant injected at 3.13-50 nM; STDEV 0.28. The protocol: as §1, with “on a” for “on the”, “PRL variants prepared as described in Example 5” for “PRL analogues”, “following: 3.13/6.25/12.5/25/50” for “following: 1.6/3.13/6.25/12.5/25”
Assay [10] has the same target. Description: SPR (Biacore); biotinylated BirATag-Ser-PRLR (1-210) amine-coupled to CM5 chip, variant injected at 3.13-50 nM; STDEV 0.29. The protocol: as §1, with “on a” for “on the”, “PRL variants prepared as described in Example 5” for “PRL analogues”, “following: 3.13/6.25/12.5/25/50” for “following: 1.6/3.13/6.25/12.5/25”
For assay [11] the target is unchanged. Description: SPR (Biacore); biotinylated BirATag-Ser-PRLR (1-210) amine-coupled to CM5 chip, variant injected at 3.13-50 nM; STDEV 0.44. The protocol:
as §1, with “on a” for “on the”, “PRL variants prepared as described in Example 5” for “PRL analogues”, “following: 3.13/6.25/12.5/25/50” for “following: 1.6/3.13/6.25/12.5/25”

Assay [12] has the same target. Put plainly: SPR (Biacore); biotinylated BirATag-Ser-PRLR (1-210) amine-coupled to CM5 chip, variant injected at 3.13-50 nM; STDEV 0.092. The protocol:
as §1, with “on a” for “on the”, “PRL variants prepared as described in Example 5” for “PRL analogues”, “following: 3.13/6.25/12.5/25/50” for “following: 1.6/3.13/6.25/12.5/25”

Numbering of substitutions follows the chain as printed. Names and notes keep the numbering of the source.

B1: wild type human prolactin (ligand)
chain: LPICPGGAARCQVTLRDLFDRAVVLSHYIHNLSSEMFSEFDKRYTHGRGFITKAINSCHTSSLATPEDKEQAQQMNQKDFLSLIVSILRSWNEPLYHLVTEVRGMQEAPEAILSKAVEIEEQTKRLLEGMELIVSQVHPETKENEIYPVWSGLPSLQMADEESRLSAYYNLLHCLRRDSHKIDNYLKLLKCRIIHNNNC
For B1, in [1], the “EC50, Ba/F3-PRLR proliferation assay” value amounted to 0.102 nM; the “EC50, stimulation (proliferation) assay, Ba/F3-PRLR cell line PRLR-09” value was determined as 0.054 nM; the “EC50, stimulation (proliferation) assay, Ba/F3-PRLR cell line PRLR-32” value was determined as 0.0375 nM.

B2: PRL S61A, Q71A, Q73A, G129R (ligand)
prolactin variant: B1 chain with S61A, Q71A, Q73A, G129R
notes: It is not in the first reading's list; also called rational designed mutant
As to B2, in assay [2], the binding result was “binds”.

B3: PRL S61A, D68N, G129R, K190R (ligand)
chain: B1 chain with S61A, D68N, G129R, K190R
notes: Printed without the prefix Ser-; No. 23 carries the same substitutions with Ser-
For the molecule B3, binding in [3] was put at a Kd of 1.4 nM.

B4: PRL G129R (ligand)
chain: B1 chain with G129R
notes: also called [2H,15N]PRL-G129R; [2H,13C,15N]PRL-G129R
Consider B4, for which, in [1], the “EC50, Ba/F3-PRLR proliferation assay” value came out at 3.2 nM and the “highest proliferation rate relative to wtPRL, Ba/F3-PRLR proliferation assay” value was 12 % of wtPRL. In assay [4], the “EC50 (so in the source); inhibition of proliferation of Ba/F3-PRLR cells stimulated with 1 nM wtPRL, OD490nM” value was found to be 64.6 nM and the “LOGEC50 (same fit)” value is -7.19 LogM. In assay [5], this molecule showed a Kd of 13.9 nM.

B5: [PRL S33A, Q73L, G129R, K190R] (ligand)
chain: B1 chain with S33A, Q73L, G129R, K190R
On to B5, for which, in assay [6], the “fold higher affinity than wt PRL and [PRL G129R]” value is roughly 2 fold.

B6: [PRL Q73L, M75T, N76S, F80L, G129R] (ligand)
chain: B1 chain with Q73L, M75T, N76S, F80L, G129R
notes: also called HTPN-62
On to B6, for which the “antagonist activity relative to [PRL G129R], Ba/F3-PRLR competition assay against 1 nM wtPRL” value in assay [1] was roughly 4 fold. Besides, in assay [4], the “EC50 (so in the source); inhibition of proliferation of Ba/F3-PRLR cells stimulated with 1 nM wtPRL, OD490nM” value was 13.8 nM and the “LOGEC50 (same fit)” value was -7.86 LogM. Also, the “fold higher affinity than wt PRL and [PRL G129R]” value in assay [6] was roughly 2 fold.

B7: Ser-PRL Q73L, G129R, K190R (ligand)
chain: SLPICPGGAARCQVTLRDLFDRAVVLSHYIHNLSSEMFSEFDKRYTHGRGFITKAINSCHTSSLATPEDKEQALQMNQKDFLSLIVSILRSWNEPLYHLVTEVRGMQEAPEAILSKAVEIEEQTKRLLERMELIVSQVHPETKENEIYPVWSGLPSLQMADEESRLSAYYNLLHCLRRDSHKIDNYLKLLRCRIIHNNNC
As for B7, in assay [7], binding was put at a Kd of 2.6 nM.

B8: Ser-PRL G129R, K190R, I194V, H195Y, N196R, N197D (ligand)
chain: B7 chain with L74Q, I195V, H196Y, N197R, N198D
In assay [8], B8 gave a dissociation constant Kd of 3.2 nM.

B9: Ser-PRL Q73L M75T N76S F80L G129R (ligand)
chain: B7 chain with M76T, N77S, F81L, R191K
Consider B9, for which the dissociation constant Kd in assay [9] was 3.6 nM. This counts as single-digit nanomolar.

B10: Ser-PRL S38I, D68N, G129R, S179T, I182V (ligand)
chain: B7 chain with S39I, D69N, L74Q, S180T, I183V, R191K
Molecule B10 showed a Kd in assay [10] of 3.1 nM.

B11: Ser-PRL S33A, Q73L, G129R, K190R, I194V, H195Y, N196R, N197D (ligand)
chain: B7 chain with S34A, I195V, H196Y, N197R, N198D
For the molecule B11, the affinity in [11], expressed as Kd, was 3.8 nM. In other words, the single-digit nanomolar range.

B12: Ser-PRL S33D, Q73L, M75T, N76S, F80L, G129R, K190R (ligand)
chain: B7 chain with S34D, M76T, N77S, F81L
In the case of B12, the Kd in assay [7] was 3.1 nM.

B13: Ser-PRL K42R, Q73L, G129R, K190R (ligand)
chain: B7 chain with K43R
The molecule B13 returned a Kd in assay [12] of 2.6 nM.

B14: Ser-PRL G129R (ligand)
chain: B7 chain with L74Q, R191K
notes: The control row gives one KD under the double label 'PRL G129R/Ser-PRL G129R'
Regarding B14, in assay [5], binding was characterised by a dissociation constant (Kd) of 13.9 nM.

As a reminder, the Kd is the equilibrium constant for the complex coming apart.
